SPT-TIRF: percentage of CXCR4-AcGFP particles that are nanoclusters (≥3 receptors/particle) on JKCD4+X4- cells on gp120-VLP-coated coverslips (basal ∼1%; Env(-) VLPs ∼9%) and SPT-TIRF: percentage of CXCR4-AcGFP particles that are nanoclusters (≥3 receptors/particle) on JKCD4+X4- cells on X4-gp120-coated coverslips (basal ∼2%) data for two substances are collected here from paper PMC13167113.

For test [1], the target named is CXCR4 endogenous on cells (human (endogenous in Daudi and Jurkat)) (UniProt P61073).
The target is the same in test [2]. The source holds these as a separate data set.

Sequence of UniProt P61073 (P61073 whole entry): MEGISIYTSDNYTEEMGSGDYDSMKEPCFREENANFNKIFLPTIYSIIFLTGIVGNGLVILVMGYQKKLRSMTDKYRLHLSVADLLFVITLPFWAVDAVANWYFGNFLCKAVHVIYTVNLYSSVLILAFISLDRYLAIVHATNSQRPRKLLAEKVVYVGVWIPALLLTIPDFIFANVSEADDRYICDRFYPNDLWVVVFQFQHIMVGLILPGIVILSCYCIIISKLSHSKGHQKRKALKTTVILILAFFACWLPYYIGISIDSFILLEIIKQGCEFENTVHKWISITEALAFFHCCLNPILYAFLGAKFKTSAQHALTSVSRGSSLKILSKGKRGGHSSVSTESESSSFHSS

Substance “X4 HIV-1 Env (gp120 and gp41) of HXB2 on virus-like particles (from UniProt P04578 33-511; P04578 512-856) (complex)” came in with an SPT-TIRF: percentage of CXCR4-AcGFP particles that are nanoclusters (≥3 receptors/particle) on JKCD4+X4- cells on gp120-VLP-coated coverslips (basal ∼1%; Env(-) VLPs ∼9%) in test [1] of 29%.

“recombinant X4 HIV-1 gp120 (residues 31-507, isolate HXB2) with a C-terminal histidine tag (from UniProt P04578 31-507) (domain or fragment)” showed an SPT-TIRF: percentage of CXCR4-AcGFP particles that are nanoclusters (≥3 receptors/particle) on JKCD4+X4- cells on X4-gp120-coated coverslips (basal ∼2%) in test [2] of 18%.
